Test results taken from publication PMC6233088.

Experiments:
[1] = biological target: RGA5_S (RGA5 982-1116), small C-terminal fragment of RGA5 carrying the HMA domain (rice) (UniProt F7J0N2); assay: ITC
[2] = biological target: minimal RGA5HMA construct (RGA5 991-1072) (rice) (UniProt F7J0N2); assay: ITC
[3] = biological target: RGA5_S (RGA5 982-1116), small C-terminal fragment of RGA5 carrying the HMA domain (rice) (UniProt F7J0N2); assay: crystal structure

Substance | Kd [1] [µM] | Kd [2] [µM] | stoichiometry N [3]
dSP-AVR-Pia (AVR-Pia with its signal peptide deleted), recombinant (natural protein) | 1.8 |  | 
dSP-AVR1-CO39 (AVR1-CO39 with its signal peptide deleted), wild type, recombinant (natural protein) |  | 7.2 | 1
